Reference: the supplement of paper PMC9732359
± gives the uncertainty stated by the source.

Test: protein stability index of a GFP-peptide fusion (yeast GPS) (PSI 1-4); higher = more stable; sorted into four equal gates, so the index is relative within each strain
In short: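 Tiled 17-residue yeast protein peptides were fused downstream of GFP in a plasmid that also expresses Cherry, and the pooled library was carried in yeast. Mid-log cultures in leucine-free medium were sorted into four equal gates by GFP/Cherry fluorescence ratio, and plasmids from each gate were PCR-amplified and Illumina-sequenced, with reads assigned to strains by barcodes. The protein stability index for each peptide was each gate's read frequency times its gate number, summed.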

| Sequence | protein stability index (doa10∆) | protein stability index (pdr5∆) | protein stability index (san1∆) | protein stability index (ubr1∆) |
| --- | --- | --- | --- | --- |
| NVGELIEKNVMESIGSD [RRP4] | 2.54 ± 0.059 | 3.03 ± 0.075 | 2.62 ± 0.098 | 2.39 ± 0.065 |
| ANTSNNLFGATANANKP [YJL041W/NSP1] | 3.32 ± 0.066 | 3.27 ± 0.044 | 3.24 ± 0.043 | 3.22 ± 0.045 |
| RLAEFKRRKLDLNNAVQ [SMC4] | 3.28 ± 0.27 | 2.87 ± 0.12 | 2.98 ± 0.067 | 2.96 ± 0.078 |
| HVKVNDKKEMTIYNNIR [SIR3] | 3.04 ± 0.052 | 2.91 ± 0.062 | 2.87 ± 0.04 | 3.228 ± 0.032 |
| QIISNAHNKPSLFSKIK [YAR002W/NUP60] | 2.94 ± 0.088 | 2.98 ± 0.093 | 2.77 ± 0.071 | 2.94 ± 0.058 |
| NDILDELLCGMANKEWR [ECM29] | 2.37 ± 0.14 | 1.47 ± 0.098 | 2.72 ± 0.15 | 1.6 ± 0.061 |
| PYGVYHPPFIKYACLAI [SIN4] | 1.42 ± 0.048 | 1.44 ± 0.04 | 1.46 ± 0.073 | 1.17 ± 0.034 |
| GELRDYIEDFLLVIGGN [YJR042W/NUP85] | 2.23 ± 0.075 | 2.38 ± 0.065 | 2.65 ± 0.08 | 1.74 ± 0.037 |
| TRPLTLSHGSLEHVLLV [FAS1] | 2.39 ± 0.068 | 2.72 ± 0.076 | 2.67 ± 0.068 | 3.12 ± 0.065 |
| PPKPRKVLQLLRLTRIN [RPL7A] | 1.95 ± 0.095 | 1.57 ± 0.077 | 1.7 ± 0.12 | 1.09 ± 0.061 |
| LRRSGQIANDPSKKRRR [SMD1] | 2.58 ± 0.078 | 3.01 ± 0.15 | 2.73 ± 0.086 | 3.23 ± 0.1 |
| SVQINVAKVDEEGRAIP [RPS21A] | 3.28 ± 0.065 | 3.23 ± 0.089 | 3.31 ± 0.048 | 3.32 ± 0.043 |
| VRSLPKEEQPKQIIVTR [PRP8] | 2.38 ± 0.1 | 2.09 ± 0.25 | 2.21 ± 0.12 | 1.98 ± 0.072 |
| EDNYNPKMQWSLQDNSA [RPN4] | 3.21 ± 0.11 | 3.3 ± 0.13 | 3.22 ± 0.087 | 3.07 ± 0.068 |
| NKEKSNSPTSFFDGSAS [YOR098C/NUP1] | 3.1 ± 0.068 | 3.07 ± 0.057 | 3.02 ± 0.041 | 2.95 ± 0.081 |
| LQRHLSLGIRPCLRKYE [RRP43] | 2.61 ± 0.061 | 2.66 ± 0.063 | 2.82 ± 0.075 | 3.08 ± 0.053 |
| LQFHVATYMDNDIAGQP [RPO21] | 2.6 ± 0.07 | 2.53 ± 0.073 | 2.6 ± 0.053 | 2.66 ± 0.056 |
| QVVLGGTSKYLINGHRA [SMC2] | 2.88 ± 0.059 | 3.19 ± 0.066 | 2.97 ± 0.062 | 2.96 ± 0.065 |
| QLVEITEQIKMRILSND [SRB8] | 2.49 ± 0.045 | 2.45 ± 0.043 | 2.44 ± 0.043 | 2.48 ± 0.034 |
| NELERNRKIYQFTLYDR [SMC3] | 1.5 ± 0.23 | 2.45 ± 0.1 | 2.31 ± 0.14 | 2.88 ± 0.1 |
| VAESFTDEADSSMTEAS [SNF2] | 3.46 ± 0.12 | 3.28 ± 0.11 | 3.38 ± 0.053 | 3.14 ± 0.096 |
| GYYVGYKATATGPKQQE [SCL1] | 3.1 ± 0.12 | 3.2 ± 0.088 | 3.02 ± 0.12 | 3.25 ± 0.14 |
| VVSILEAGDSDILTTLA [RPL30] | 3.12 ± 0.059 | 2.92 ± 0.074 | 3.01 ± 0.068 | 3.03 ± 0.061 |
| VDEEDENGTHNDEVNED [YCG1] | 3.46 ± 0.09 | 3.32 ± 0.17 | 3.55 ± 0.11 | 3.51 ± 0.077 |
| VENDTFIERNFTPQEIE [FAS2] | 2.87 ± 0.083 | 2.32 ± 0.062 | 2.15 ± 0.068 | 3.18 ± 0.05 |
| SAAGMTAAIDSVVSQIE [FAS1] | 3.49 ± 0.23 | 3.15 ± 0.11 | 3.04 ± 0.24 | 2.81 ± 0.11 |

| Sequence | protein stability index (doa10∆) | protein stability index (pdr5∆) | protein stability index (san1∆) | protein stability index (ubr1∆) |
| --- | --- | --- | --- | --- |
| SIIKAKLPLLNESLIPL [YML103C/NUP188] | 1.68 ± 0.06 | 2.18 ± 0.067 | 1.84 ± 0.082 | 1.99 ± 0.05 |
| NSAARNIQHLLYGKRFF [PRE7] | 2.13 ± 0.08 | 2.72 ± 0.084 | 2.12 ± 0.1 | 2.45 ± 0.076 |
| DPFFAQSEDLSHAVEFF [YML103C/NUP188] | 3.23 ± 0.056 | 3.17 ± 0.057 | 3.31 ± 0.045 | 3.14 ± 0.042 |
| YKIKGRNNSKSVLLKKL [SRP72] |  | 1.56 ± 0.11 | 2.42 ± 0.26 | 1.06 ± 0.11 |
| SSNPQSAYVKAFYQKGN [SMC1] | 1.87 ± 0.049 | 1.98 ± 0.047 | 1.96 ± 0.052 | 1.95 ± 0.033 |
| NIPFWKHVGFELLSMGN [SRP72] | 1.82 ± 0.1 | 1.58 ± 0.085 | 2.01 ± 0.16 | 1.27 ± 0.079 |
| MNGNGKPGIPRGNTKIH [SIR3] |  | 2.83 ± 0.23 | 3.32 ± 0.094 | 3.25 ± 0.18 |
| QLDSDANKLSKSHSTVS [ISW2] | 3.04 ± 0.063 | 2.85 ± 0.075 | 3 ± 0.13 | 3.06 ± 0.074 |
| SPIVNVLEDVYRCFAQL [RRI2] | 2.53 ± 0.18 | 3.19 ± 0.17 | 2.9 ± 0.14 | 3.09 ± 0.083 |
| IGHLIKTRFKGSQFIVV [SMC2] | 3.5 ± 0.12 | 3.05 ± 0.084 | 3.38 ± 0.087 | 3.14 ± 0.08 |
| IIGTFSDSYKVSLQNFS [RRP40] | 2.11 ± 0.099 | 1.79 ± 0.079 | 2.24 ± 0.11 | 1.96 ± 0.054 |
| NLFSSTGFKGLLIELQA [SRB2] | 2.6 ± 0.12 | 2.87 ± 0.069 | 2.92 ± 0.058 | 2.94 ± 0.042 |
| LLKHPFKAIHGSQLRLS [YCS4] | 1.67 ± 0.046 | 1.62 ± 0.043 | 1.64 ± 0.072 | 1.83 ± 0.025 |
| QKVFVRSRNGGATKIVR [DIS3] | 2.33 ± 0.085 | 1.59 ± 0.11 | 2.88 ± 0.1 | 2.45 ± 0.21 |
| FFLRDTLLWNKNDKLIK [SNF5] | 2.4 ± 0.062 | 2.04 ± 0.059 | 2.06 ± 0.067 | 2.42 ± 0.027 |
| LYAVSTFENTNNTEKND [SIR4] | 2.37 ± 0.072 | 2.4 ± 0.075 | 2.5 ± 0.083 | 2.38 ± 0.057 |
| PGVRVSGEDVIIGKTTP [RPB2] | 3.36 ± 0.13 | 3.41 ± 0.16 | 3.61 ± 0.078 | 3.45 ± 0.073 |
| NVQTQYREAPVIYRGPE [RET1] | 2.53 ± 0.095 | 2.97 ± 0.069 | 3.36 ± 0.042 | 3.14 ± 0.051 |
| GSYGSLLRFNGVERLIP [PRE4] | 2 ± 0.064 | 2.44 ± 0.069 | 2.04 ± 0.12 | 2.22 ± 0.12 |
| TSMNGVHNTVAAGNASS [SNF5] | 2.73 ± 0.043 | 2.74 ± 0.037 | 2.76 ± 0.05 | 2.76 ± 0.051 |
| ITQDGKFAYKIDKITDG [YMR129W/POM152] | 2.9 ± 0.087 | 3.03 ± 0.073 | 2.81 ± 0.063 | 2.85 ± 0.051 |
| KVVNGNSADAAYAQVEI [FAS2] | 2.53 ± 0.063 | 2.67 ± 0.07 | 2.14 ± 0.068 | 2.42 ± 0.057 |
| ALERYDEAEGRFEVINN [SMC1] |  | 1.12 ± 0.17 |  |  |
| VVLRLYLKDNITLLTRQ [GRR1] | 1.88 ± 0.057 | 1.75 ± 0.084 | 1.34 ± 0.11 | 1.98 ± 0.067 |
| CHSKLRGQQVENPTDNF [GRR1] | 2.86 ± 0.22 |  |  |  |
| DNEEWMNDVINTEEVNR [LIN1] | 3.2 ± 0.071 | 3.46 ± 0.079 | 3.23 ± 0.044 | 3.39 ± 0.085 |
